Source: US20230322953A1

What was measured:
[1] = molecular target: cynomolgus monkey CD3 (TCR/CD3 complex) on cynomolgus monkey T cells (cynomolgus monkey); assay: flow cytometry (FACS) on cynomolgus monkey T cells, isotype control
[2] = molecular target: human CD3 (TCR/CD3 complex) on human T cells (human) (UniProt P07766); assay: flow cytometry (FACS) on human T cells, Experiment 3, isotype control
[3] = molecular target: human CD3 (TCR/CD3 complex) on human T cells (human) (UniProt P07766); assay: flow cytometry (FACS) on human T cells, Experiment 2, isotype control

Chain of human CD3 (TCR/CD3 complex) on human T cells (human) (P07766 23-207, one chain of several): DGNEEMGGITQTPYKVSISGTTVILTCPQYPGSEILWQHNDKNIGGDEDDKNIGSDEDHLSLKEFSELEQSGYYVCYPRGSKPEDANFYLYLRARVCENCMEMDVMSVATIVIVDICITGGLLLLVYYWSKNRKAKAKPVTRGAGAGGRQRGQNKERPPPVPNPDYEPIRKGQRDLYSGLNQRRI
Chain of cynomolgus monkey CD3 (TCR/CD3 complex) on cynomolgus monkey T cells (cynomolgus monkey) (Q95LI5 22-198, one chain of several): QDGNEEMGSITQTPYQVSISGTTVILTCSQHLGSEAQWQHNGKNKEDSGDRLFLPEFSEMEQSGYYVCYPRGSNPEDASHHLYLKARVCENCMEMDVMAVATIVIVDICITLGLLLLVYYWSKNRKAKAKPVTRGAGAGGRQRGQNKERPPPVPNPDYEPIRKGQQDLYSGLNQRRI

Maximum MFI [1]: 794 MFI
Maximum MFI [2]: 3000 MFI
Maximum MFI [3]: 12 MFI
Substance: hIgG1 iso (CrownBio, #C0001) (antibody)
